Literature values, collected in paper PMC4309608.

Assays:
[1] = biological target: E-cadherin (Homo sapiens) (UniProt P12830)
[2] = biological target: TgRON2 (Toxoplasma gondii) (UniProt B6KV60)
Met (Homo sapiens) = Met (Homo sapiens) (UniProt P08581)
Chain of UniProt P08581 (P08581 25-932): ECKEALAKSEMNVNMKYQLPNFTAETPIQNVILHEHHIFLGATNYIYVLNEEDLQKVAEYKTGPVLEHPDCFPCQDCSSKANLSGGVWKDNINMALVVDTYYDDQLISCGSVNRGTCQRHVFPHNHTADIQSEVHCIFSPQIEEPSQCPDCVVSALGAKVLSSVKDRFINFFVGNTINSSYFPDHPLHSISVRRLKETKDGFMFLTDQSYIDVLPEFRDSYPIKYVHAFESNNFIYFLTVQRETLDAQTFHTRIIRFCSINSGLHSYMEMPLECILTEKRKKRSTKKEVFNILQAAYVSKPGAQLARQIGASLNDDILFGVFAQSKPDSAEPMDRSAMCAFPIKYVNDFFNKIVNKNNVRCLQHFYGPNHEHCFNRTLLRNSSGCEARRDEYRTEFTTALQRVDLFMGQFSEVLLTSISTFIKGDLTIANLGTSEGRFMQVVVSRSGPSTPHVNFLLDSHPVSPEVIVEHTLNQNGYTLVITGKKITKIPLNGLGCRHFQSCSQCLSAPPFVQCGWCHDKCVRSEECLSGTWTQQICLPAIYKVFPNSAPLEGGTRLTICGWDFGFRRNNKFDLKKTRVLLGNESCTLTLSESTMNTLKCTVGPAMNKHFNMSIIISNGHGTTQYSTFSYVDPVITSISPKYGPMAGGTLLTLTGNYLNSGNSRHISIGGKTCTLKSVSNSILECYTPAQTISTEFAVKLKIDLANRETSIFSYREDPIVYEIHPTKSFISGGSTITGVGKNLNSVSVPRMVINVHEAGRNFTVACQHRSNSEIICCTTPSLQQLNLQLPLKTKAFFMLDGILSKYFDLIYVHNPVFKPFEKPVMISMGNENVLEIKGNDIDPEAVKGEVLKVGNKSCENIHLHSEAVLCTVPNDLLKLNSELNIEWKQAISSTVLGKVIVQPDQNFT

Chain of UniProt P12830 (P12830 155-709): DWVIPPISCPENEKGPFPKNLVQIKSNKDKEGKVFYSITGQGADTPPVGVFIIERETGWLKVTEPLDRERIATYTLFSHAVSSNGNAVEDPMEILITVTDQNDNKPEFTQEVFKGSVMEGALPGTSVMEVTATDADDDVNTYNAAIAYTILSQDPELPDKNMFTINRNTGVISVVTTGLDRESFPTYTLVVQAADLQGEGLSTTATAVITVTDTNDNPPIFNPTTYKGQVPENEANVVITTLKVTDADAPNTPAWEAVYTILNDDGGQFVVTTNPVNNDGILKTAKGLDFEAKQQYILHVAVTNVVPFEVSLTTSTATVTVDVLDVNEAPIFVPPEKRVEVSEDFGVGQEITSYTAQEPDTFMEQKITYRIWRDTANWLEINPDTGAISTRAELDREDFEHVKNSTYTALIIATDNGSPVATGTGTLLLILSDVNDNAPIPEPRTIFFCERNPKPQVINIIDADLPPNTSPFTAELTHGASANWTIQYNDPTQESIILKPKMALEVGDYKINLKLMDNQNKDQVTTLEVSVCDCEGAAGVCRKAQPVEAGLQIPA
Chain of UniProt B6KV60 (B6KV60 25-1277): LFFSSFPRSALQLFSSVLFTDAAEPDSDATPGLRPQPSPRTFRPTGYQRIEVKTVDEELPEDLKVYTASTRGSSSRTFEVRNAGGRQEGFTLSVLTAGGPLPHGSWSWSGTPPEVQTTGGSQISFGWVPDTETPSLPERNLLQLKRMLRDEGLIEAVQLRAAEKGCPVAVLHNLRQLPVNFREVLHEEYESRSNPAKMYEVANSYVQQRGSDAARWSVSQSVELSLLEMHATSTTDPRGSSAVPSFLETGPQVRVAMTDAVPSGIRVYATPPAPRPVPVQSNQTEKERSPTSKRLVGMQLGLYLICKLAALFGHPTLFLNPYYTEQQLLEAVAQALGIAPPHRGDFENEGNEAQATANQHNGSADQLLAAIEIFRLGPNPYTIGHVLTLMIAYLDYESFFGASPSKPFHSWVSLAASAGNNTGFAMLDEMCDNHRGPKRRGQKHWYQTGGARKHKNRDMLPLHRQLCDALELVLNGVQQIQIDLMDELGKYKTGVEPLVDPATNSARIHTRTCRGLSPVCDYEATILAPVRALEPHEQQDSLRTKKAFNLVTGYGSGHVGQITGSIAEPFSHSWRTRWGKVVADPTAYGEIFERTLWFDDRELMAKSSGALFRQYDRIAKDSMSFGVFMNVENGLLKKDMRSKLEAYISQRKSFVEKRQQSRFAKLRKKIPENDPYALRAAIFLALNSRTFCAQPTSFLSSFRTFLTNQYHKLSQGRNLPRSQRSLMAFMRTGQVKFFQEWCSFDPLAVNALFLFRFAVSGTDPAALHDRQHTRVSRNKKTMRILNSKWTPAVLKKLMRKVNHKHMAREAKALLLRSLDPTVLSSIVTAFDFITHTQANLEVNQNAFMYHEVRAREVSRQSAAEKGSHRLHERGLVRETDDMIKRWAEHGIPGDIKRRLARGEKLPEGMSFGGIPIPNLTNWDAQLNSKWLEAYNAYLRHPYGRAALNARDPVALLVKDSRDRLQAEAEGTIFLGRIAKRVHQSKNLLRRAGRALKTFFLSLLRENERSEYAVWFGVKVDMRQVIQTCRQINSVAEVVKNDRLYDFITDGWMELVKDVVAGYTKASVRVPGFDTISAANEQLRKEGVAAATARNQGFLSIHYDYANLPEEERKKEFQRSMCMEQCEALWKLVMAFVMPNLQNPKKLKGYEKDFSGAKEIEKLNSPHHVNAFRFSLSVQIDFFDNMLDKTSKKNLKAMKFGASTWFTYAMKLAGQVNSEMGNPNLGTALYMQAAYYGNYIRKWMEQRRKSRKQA

Substance: InlA (from UniProt P0DJM0)
- Kd [1]: 8000 nM

Substance: TgAMA1 (from UniProt B6KAM0)
- Kd [2]: 15 nM

Substance: InlB (from UniProt P0DQD3)
- Kd (Met (Homo sapiens)): 25 nM
